Measured values reported in patent WO2021212049A2.

Tests used:
Settings in all cases: remark: other sources report otherwise
[1] = target: T1, untagged SARS-CoV-2 RBD expressed in E. coli BL21(DE3) and oxidatively refolded (RBDWT) (SARS-CoV-2), P0DTC2; assay: BLI, RBD expressed in E. coli
[2] = target: bacterially derived SARS-CoV RBD (SARS-CoV), P59594; assay: BLI, bacterially derived SARS-CoV RBD
[3] = target: Mammalian SARS-CoV2 RBD (residues 331-524) with C-terminal 6XHis Tag (SARS-CoV-2), P0DTC2; assay: ELISA on coated antigen, anti-human IgG-HRP
[4] = target: T1, untagged SARS-CoV-2 RBD expressed in E. …; assay: BLI, RBD expressed in E. coli, 1:1 Langmuir fit

B1: mAb 2H04 (antibody)
chain 1: EVQLQQSGAELVKPGASVKMSCKASGYTFTSYWITWVKQRPGQGLEWIGDIYPGSGSTKYNEKFRSEATLTVDTSSTTAYMQLSSLTSEDSAVYYCARWDFYGSRTFDYWGQGTTLTVSS
chain 2: DIVLTQSPAILSVSPGERVSFSCRASQNIGTIIHWYQQRTNGSPRLLIKYASESVSGIPSRFSGSGSGTDFTLSINSVESEDIADYYCQQSSSWPLTFGAGTKLELK
- half-life [1]: 76.2 s
- Kd [2]: 1420 nM
- half-life [2]: 25.8 s
- minimum positive concentration [3]: < 5 µg/mL
- Kd [4]: 40 nM
